Here are results for three molecules from patent US20240409638A1 (AVACTA LIFE SCIENCES, published 2024).

For test [1], the target named is T1, PD-L1 on cells (NCI-H441 cells; aAPC PD-L1/CHO-K1 cells, Promega) (human, UniProt Q9NZQ7 19-290). Briefly: cell-based or functional assay.
The target of test [2] is T2, human serum albumin (HSA) (human, UniProt P02768 25-609).
T2 construct: The assays used bought HSA (Sigma #A37812 in the SPR work); also called HuSA
Briefly: SPR, Biacore, HSA amine-coupled on CM5; mammalian-produced format. The method, then: (§1) For the HSA binding kinetic analysis, HSA (Sigma #A37812) was immobilized on a CM5 chip surface using amine coupling in 10 mM sodium acetate (pH 5.0) (Cytvia). […] The chip surface was regenerated with 3 mM NaOH for 20 seconds at a flow rate of 20 μl/min. The kinetic data was blank subtracted and fit to a 1:1 Langmuir binding model (BIAcore evaluation software; Cytiva).
In general terms: SPR reads the build-up and loss of mass on a sensor chip optically.

Test [3] has as its target T3, murine serum albumin (MSA) (murine, UniProt P07724 25-608).
T3 construct: Bought reagent
The test is described as follows: SPR, Biacore, MSA amine-coupled on CM5; mammalian-produced format.

Test [4] concerns the target T2, human serum albumin (HSA). Briefly: HSA binding ELISA: HSA coated, anti-cystatin A detection. (An ELISA detects its analyte on a solid surface through an enzyme-linked reagent.)
Test [5] deals with T4, human PD-L1-Fc (R&D Systems) (human, UniProt Q9NZQ7 19-239).
T4 construct: Bought reagent; also called huPD-L1-Fc; huPD-L1; not shown: Fc part of the bought fusion
The test is described as follows: human PD-L1-Fc binding ELISA: huPD-L1-Fc coated, anti-cystatin A detection.

In test [6] the target is T4, human PD-L1-Fc (R&D Systems). Briefly: SPR (Biacore 8K): human PD-L1-Fc amine-coupled on a CM5 chip, AFFIMER as analyte.
Test [7] concerns the target T2, human serum albumin (HSA). The test is described as follows: SPR (Biacore): immobilized ligand HSA (Sigma # A3782), AFFIMER as analyte, pH 7.0 by the legend. The method, then:
as §1

Test [8] concerns the target T3, murine serum albumin (MSA). Briefly: SPR (Biacore): immobilized ligand MSA (Sigma # A3559), AFFIMER as analyte, pH 7.0 by the legend.
In test [9] the target is T1, PD-L1 on cells (NCI-H441 cells; aAPC …). The test is described as follows: cell-based or functional assay. This is another data set of the same source.
Test [10] shares this target. The test is described as follows: flow cytometry, % positive cells, NCI-H441 cells (endogenous PD-L1). The method, then:
(§2) Lung cancer cell line (NCI-H441 (ATCC), CHO-K1 recombinant cell line overexpressing PD-L1 aAPC/CHO-K1 (Promega J1252)) and a negative cell line (CHO-K1, ATCC) were used to assess AFFIMER® agent binding capacity to PD-L1 by flow cytometry.
(§3) Briefly, 50 000 cells were added to each well of a 96-well microplate. After this step and each subsequent step, cells were washed twice with PBS+2 mM EDTA using 350g centrifugation for 3 minutes at 4° C. All steps were performed at 4° C. using assay buffer comprising 5% FBS, 2 mM EDTA and 0.05% sodium azide in PBS unless otherwise stated. Independent AFFIMER® agent dilutions were prepared in duplicate and added to the plates. […] Fixation was performed for 10 minutes at 4° C. with Fixation Buffer (Bio-techne FC004). Cells were resuspended in 100 ul assay buffer prior the acquisition of the data. 5000 events were collected by Flow cytometry (Millipore Guava 12HT). The results were gated on live cells and singlets (SSC-H vs SSC-A). The percentage of cells expressing PD-L1 bound by the AFFIMER® agent (positive cells) was determined by using as negative control (background) where the wells were stained with the AF488 conjugated secondary antibody only without AFFIMER® agent. The average of the duplicate wells was used to calculate EC₅₀ using a four-parameter non-linear regression curve fit using Graphpad Prism software. […]

For test [11] the target is unchanged. Briefly: flow cytometry, % positive cells, aAPC PD-L1/CHO-K1 cells (overexpressing PD-L1). As for the experimental part: as §2, §3
(In general: In flow cytometry, cells or beads pass a laser one at a time.)

Test [12] has as its target T2, human serum albumin (HSA). The test is described as follows: SPR (Biacore 8K): HSA amine-coupled on a CM5 chip, AFFIMER as analyte, pH 6.0, 1:1 Langmuir fit. As for the experimental part:
as §1

Test [13] deals with T2, human serum albumin (HSA). Briefly: SPR (Biacore 8K): HSA amine-coupled on a CM5 chip, AFFIMER as analyte, pH 7.4, 1:1 Langmuir fit. The method, then:
as §1

In test [14] the target is T4, human PD-L1-Fc (R&D Systems). Briefly: SPR (Biacore 8K): human PD-L1-Fc amine-coupled on a CM5 chip, AFFIMER as analyte, 1:1 Langmuir fit.
For test [15] the target is unchanged. The test is described as follows: human PD-L1-Fc binding ELISA: huPD-L1-Fc coated, anti-cystatin A detection, no HSA in the assay buffer. The method, then:
(§4) Plates were washed and AFFIMER® polypeptides were detected using streptavidin-HRP for 30 min. After the last washing step, the TMB substrate was added for the development of the experiment and plates were read at 450 nm. The EC₅₀ was then calculated using the interpolated non-linear four-parameters standard curve.

Test [16] shares this target. Briefly: human PD-L1-Fc binding ELISA: huPD-L1-Fc coated, anti-cystatin A detection, with 10 µM HSA in the assay buffer. The method, then:
as §4

Test [17] has as its target T2, human serum albumin (HSA). The test is described as follows: HSA binding ELISA: HSA coated, bound AFFIMER detected with biotinylated anti-cystatin A antibody and streptavidin-HRP. The method, then: as §4
Test [18] concerns the target T1, PD-L1 on cells (NCI-H441 cells; aAPC …). Briefly: flow cytometry on NCI-H441 cells endogenously expressing PD-L1, anti-cystatin A antibody and AF488 secondary antibody, % positive cells.
Test [19] has as its target T4, human PD-L1-Fc (R&D Systems). Briefly: human PD-L1-Fc/HSA bridging ELISA: huPD-L1-Fc coated, AFFIMER titrated with 10 µM HSA, detection with HRP-conjugated anti-HSA antibody (the signal needs PD-L1 and HSA bound at once). The method, then: After saturation with 5% casein/PBS buffer, the plates were washed and a dilution of AFFIMER® polypeptides or controls was incubated with HSA at a final concentration of 10 μM for 90 minutes. Plates were then washed, and a […] polyclonal antibody, anti-HSA (HRP-conjugated) (Abcam), was added for 90 minutes. After a last washing step, TMB was added for the development of the experiment and the plates were read at 450 nm. The EC₅₀ was then calculated using the interpolated non-linear four-parameters standard curve (FIG. 10).

The target is the same in test [20]. The test is described as follows: PD-L1/PD-1 competition ELISA (binding inhibition %): human PD-1-Fc coated, AFFIMER preincubated with huPD-L1-Fc at its EC80, bound PD-L1 detected; blocked ligand: human PD-1-Fc. The table column is headed 'EC50 (nM)'; the text calls the values IC50. The method, then: Plates were washed two times with washing buffer (PBS, Tween 20 0.1%) with a plate washer and saturated with Casein 5% (Sigma) in PBS for 90 minutes at room temperature (25±1° C.). […] Plates were washed 3 times as described previously. […] Plates were washed 3 times as described previously and Streptavidin-HRP was added, and the plates were incubated for 30 minutes at room temperature (25±1° C.). Plates were washed a last time and the substrate (TMB; Pierce Thermo-Scientific) was added to the plate. After 10 minutes, the reaction was stopped using an acidic solution and the plates were read at absorbance 450-630 nm. The IC₅₀ was then calculated using the interpolated non-linear four-parameters standard curve.

The target is the same in test [21]. Briefly: huPD-L1-Fc binding ELISA.

Where “and” joins values, the source holds several entries; their conditions need not be identical. Identical values can stand only once.

T1 sequence (Q9NZQ7 19-290): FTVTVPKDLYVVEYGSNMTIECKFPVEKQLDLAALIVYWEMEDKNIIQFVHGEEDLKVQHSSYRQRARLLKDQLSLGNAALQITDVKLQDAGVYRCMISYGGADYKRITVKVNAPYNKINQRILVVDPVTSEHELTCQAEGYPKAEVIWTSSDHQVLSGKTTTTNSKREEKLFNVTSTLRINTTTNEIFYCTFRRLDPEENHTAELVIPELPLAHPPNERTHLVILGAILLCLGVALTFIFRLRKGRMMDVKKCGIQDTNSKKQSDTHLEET
T2 sequence (P02768 25-609): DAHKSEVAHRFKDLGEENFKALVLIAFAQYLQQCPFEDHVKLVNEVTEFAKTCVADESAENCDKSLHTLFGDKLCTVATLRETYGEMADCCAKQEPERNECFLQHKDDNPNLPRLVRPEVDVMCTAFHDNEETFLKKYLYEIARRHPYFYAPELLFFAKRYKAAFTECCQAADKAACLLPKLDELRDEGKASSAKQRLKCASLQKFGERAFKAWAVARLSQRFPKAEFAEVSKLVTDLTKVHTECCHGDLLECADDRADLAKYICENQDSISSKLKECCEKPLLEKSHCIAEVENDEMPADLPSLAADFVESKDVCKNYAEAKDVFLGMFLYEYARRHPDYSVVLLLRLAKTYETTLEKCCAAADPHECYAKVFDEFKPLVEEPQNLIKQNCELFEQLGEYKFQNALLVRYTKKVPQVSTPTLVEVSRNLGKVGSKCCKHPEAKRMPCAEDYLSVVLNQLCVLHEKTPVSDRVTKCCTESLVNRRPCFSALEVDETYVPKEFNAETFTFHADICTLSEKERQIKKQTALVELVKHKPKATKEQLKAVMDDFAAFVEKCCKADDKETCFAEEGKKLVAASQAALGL
T4 sequence (Q9NZQ7 19-239 limits assumed): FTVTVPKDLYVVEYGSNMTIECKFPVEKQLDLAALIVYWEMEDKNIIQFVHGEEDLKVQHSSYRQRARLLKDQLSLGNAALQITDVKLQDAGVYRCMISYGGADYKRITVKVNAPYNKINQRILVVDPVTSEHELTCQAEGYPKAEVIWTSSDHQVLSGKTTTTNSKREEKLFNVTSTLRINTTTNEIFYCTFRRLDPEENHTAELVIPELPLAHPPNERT

B1: Clone 80 XT38 (mammalian-produced anti-PD-L1 AFFIMER® ILF dimer XT) (designed binder)
chain: MIPGGLSEAKPATPEIQEIVDKVKPQLEEKTGETYGKLEAVQYKTQVVRRKHFPQWPGTNYYIKVRAGDNKYMHLKVFKSLDLQPREVFQEDLVLTGYQVDKNKDDELTGFAEAAAKEAAAKEAAAKEAAAKEAAAKEAAAKMIPGGLSEAKPATPEIQEIVDKVKPQLEEKTGETYGKLEAVQYKTQVVRRKHFPQWPGTNYYIKVRAGDNKYMHLKVFKSLDLQPREVFQEDLVLTGYQVDKNKDDELTGFAEAAAKEAAAKEAAAKEAAAKEAAAKEAAAKMIPRGLSEAKPATPEIQEIVDKVKPQLEEKTNETYGKLEAVQYKTQVLANFFQRRWPGSTNYYIKVRAGDNKYMHLKVFNGPWKFRNTDRGADRVLTGYQVDKNKDDELTGF
notes: Same trimeric ILF format as Clone 80 XT35, expressed in HEK (Expi293F) cells
Consider B1, for which the “IC50 of PD-1/PD-L1 blockade (% of inhibition, Promega NFAT-luciferase reporter cells)” value in test [1] was 57.9 nM. Besides, the Kd in [2] came out at 15.5 nM; in test [3], 413 nM; in [6], 0.0864 nM. For the same molecule, the EC50 in test [4] came out at 2.78 nM; in test [5], 0.02 nM. In addition, the figures for the koff in test [6], in test [7] and in test [8] were 8.41e-05 s⁻¹, 0.00641 s⁻¹ and 0.0741 s⁻¹, respectively. Moreover, the kon in test [6] amounted to 974000 M⁻¹ s⁻¹; in test [7], 412000 M⁻¹ s⁻¹; in test [8], 179000 M⁻¹ s⁻¹.

B2: Clone 80 XT34 (anti-PD-L1 type III AFFIMER® XT in-line fusion monomer XT) (designed binder)
chain: MIPGGLSEAKPATPEIQEIVDKVKPQLEEKTGETYGKLEAVQYKTQVVRRKHFPQWPGTNYYIKVRAGDNKYMHLKVFKSLDLQPREVFQEDLVLTGYQVDKNKDDELTGFAEAAAKEAAAKEAAAKEAAAKEAAAKEAAAKMIPRGLSEAKPATPEIQEIVDKVKPQLEEKTNETYGKLEAVQYKTQVLANFFQRRWPGSTNYYIKVRAGDNKYMHLKVFNGPWKFRNTDRGADRVLTGYQVDKNKDDELTGFHHHHHH
notes: Made in E. coli; LC/MS found a +42-43 Da species, assigned as acetylated; also called XT34_1; XT34_2
Turning to B2, the “half-maximal concentration of PD-1/PD-L1 blockade (% of inhibition, NFAT-luciferase reporter cells; IC50)” value in test [9] was determined as 105 nM. In addition, the concentration giving a half-maximal response (EC50) is 0.64 nM and 1.28 nM in test [10]; 0.1 nM in [11]; 0.02 nM in test [15]; 0.03 nM in test [16]; 0.02 nM in test [17]; 0.56 nM in test [19]. The Kd was found to be 3.36 nM in test [12], 5.01 nM in test [13] and 0.224 nM in test [14]. For the same molecule, the koff stood at 0.00271 s⁻¹ in test [12] and 0.00364 s⁻¹ in [13]. Further, the kon in [12] stood at 808000 M⁻¹ s⁻¹; in test [13] it was 727000 M⁻¹ s⁻¹. In addition, the “EC50 (read off the curve)” value in test [18] was approximately 1 nM. In test [20], the IC50 stood at 2.3 nM.

B3: Clone 80 (monomeric anti-PD-L1 AFFIMER® polypeptide) (designed binder)
chain: MIPGGLSEAKPATPEIQEIVDKVKPQLEEKTGETYGKLEAVQYKTQVVRRKHFPQWPGTNYYIKVRAGDNKYMHLKVFKSLDLQPREVFQEDLVLTGYQVDKNKDDELTGF
notes: Engineered Stefin A variant; also called anti-PD-L1 type I AFFIMER® polypeptide
As for B3, the EC50 was 0.2 nM in [21] and 0.21 nM in [5]. For the same molecule, the “half-maximal concentration of PD-1/PD-L1 blockade (% of inhibition, NFAT-luciferase reporter cells; IC50)” value in test [9] was 27.9 nM. The same molecule yielded a Kd in test [14] of 0.449 nM. Besides, the binding result in test [17] is recorded as “no binding”. Further, the IC50 in [20] is 1.63 nM.

One may read the Kd as the concentration at which binding is half-saturated. Read a high Kd as weaker binding. What is called EC50 is the concentration needed to bring the measured effect to its halfway point. A lower EC50 goes with a more potent agent. Broadly, the koff is a measure of how fast the partners let go of each other. High values mean a short-lived complex, low ones a long-lived complex. A word on the kon: it is a measure of how fast the partners come together. Low values mean slower complex formation, high ones faster complex formation. For orientation: EC50 (read off the curve) means the concentration at which the effect is half-maximal. High values mean a less potent agent, low ones a more potent agent. For orientation: IC50 means the concentration at which inhibition is half-maximal. Read a low IC50 as greater potency in that assay.
